In PMC9068512 one finds stoichiometry N data, which are given here for one substance.

The target of this assay is modified calcium-permeable rat GluA2flip subunit with Q586 at the Q/R site (GluA2*), as the GluA2 portion of the GluA2–γ2 fusion (rat) (UniProt P19491). The assay can be described thus: cryo-EM structure; purified GluA2–γ2 fusion in 150 mM NaCl, 20 mM Tris-HCl pH 8.0, 0.05% digitonin, supplemented with 20 µM Glu and 100 µM CTZ; seven LBD–TMD reconstructions (NNNN, GNNN, GNGN1, GNGN2, GGNN, GGGN, GGGG).

“modified calcium-permeable rat GluA2flip subunit with Q586 at the Q/R site (GluA2*), as the GluA2 portion of the GluA2–γ2 fusion (from UniProt P19491-2 22-883) (receptor)”: the stoichiometry N was found to be 4.
